Where only a bound is given, the exact number is not on record here.

Five substances from US20110223615A1 can be followed below.

What all share (assay): cell-based or functional assay
Assay [1] has as its target ADA (envelope of the HIV-1 pseudovirus) (HIV-1).
In assay [2] the target is BaL.01 (envelope of the HIV-1 pseudovirus) (HIV-1).
The target of assay [3] is HIV2 (envelope of the indicator virus, without sCD4) (HIV-2).
Assay [4] has as its target JRFL (envelope of the HIV-1 pseudovirus) (HIV-1).
The target in assay [5] is MuLV (envelope of the control pseudovirus) (MuLV).
Assay [6] deals with SF162 (envelope of the HIV-1 pseudovirus) (HIV-1).
Assay [7] concerns the target SVPB12 (envelope of the HIV-1 pseudovirus) (HIV-1).
For assay [8], the target named is SVPB14 (envelope of the HIV-1 pseudovirus) (HIV-1).
Assay [9] concerns the target SVPB16 (envelope of the HIV-1 pseudovirus) (HIV-1).
Assay [10] deals with SVPB17 (envelope of the HIV-1 pseudovirus) (HIV-1).
Assay [11] addresses SVPB5 (envelope of the HIV-1 pseudovirus) (HIV-1).

For the substance CD4bs mAb b12 (antibody), the IC50 (ug/ml) neutralization in assay [1] was 1.2 µg/mL; in [2] it was 0.2 µg/mL; in assay [3] it was over 30 µg/mL; in assay [4], under 0.1 µg/mL; in [5] it was over 30 µg/mL; in assay [6], under 0.1 µg/mL. Further, the IC50 (ug/ml) neutralization in [7] is over 30 µg/mL; in assay [8], 0.3 µg/mL; in assay [9], 12 µg/mL; in assay [10], over 30 µg/mL; in assay [11], 18 µg/mL.
E51 (antibody): the IC50 (ug/ml) neutralization in assay [1] was over 30 µg/mL; in [2], over 30 µg/mL; in assay [3], over 30 µg/mL; in assay [4] it was over 30 µg/mL; in assay [5], over 30 µg/mL; in [6], 45 µg/mL. Further, the IC50 (ug/ml) neutralization in [7], in assay [8], in assay [9], in assay [10] and in assay [11] was over 30 µg/mL each time.
Turning to HIV-1 CD4i mAb 17b (antibody), the IC50 (ug/ml) neutralization in [1] is over 30 µg/mL; in assay [2], over 30 µg/mL; in [3], 10 µg/mL; in [4], over 30 µg/mL; in [5], over 30 µg/mL; in [6], 30 µg/mL. Also, the IC50 (ug/ml) neutralization in [7], in [8], in [9], in assay [10] and in assay [11] was over 30 µg/mL in each case.
For the substance HIV-1 CD4i mAb 19e (antibody), the IC50 (ug/ml) neutralization in [1], in assay [2], in [3], in assay [4], in assay [5] and in assay [6] was over 30 µg/mL each time. Moreover, the IC50 (ug/ml) neutralization in assay [7], in [8], in [9], in assay [10] and in assay [11] was over 30 µg/mL each time.
For “broadly neutralizing mAb 2G12 (antibody)”, the IC50 (ug/ml) neutralization is 12 µg/mL in assay [1]; 1 µg/mL in assay [2]; over 25 µg/mL in [3]; 0.3 µg/mL in assay [4]; over 25 µg/mL in assay [5]; 0.5 µg/mL in assay [6]. The IC50 (ug/ml) neutralization in [7] was 0.3 µg/mL; in [8], over 25 µg/mL; in assay [9] it was over 25 µg/mL; in [10], over 25 µg/mL; in [11], 8 µg/mL.
